Test: Release of LL-37 from coated polyurethane (PU) foam, quantified by ELISA
Format: physicochemical
Details: for % LL-37 released in solution: PU foam, data not shown
Method: LL-37 dissolved in PBS or ethanol was absorbed onto PU foam at a concentration of 25 μg LL-37/cm^2. A 1×1 cm piece of each preparation was cut, placed into a glass vial containing 3 ml PBS, and incubated under agitation for 24 h. At various time points (10, 20, 45, 120 min, and 24 h), 100 μl samples were collected and the amount of LL-37 released in solution was evaluated by ELISA. Results are expressed as the % LL-37 released in solution.
LL-37 was dissolved in ethanol or in PBS and 1 ml suspension was dropped onto 2×2 cm pieces of polyurethane (PU) foam (Brightwake, Kirkby-in-Ashfield, United Kingdom). The samples were allowed to dry at room temperature (RT) until no further weight loss could be recorded. Unless otherwise noted, a LL-37 solution at 100 μg/ml was used, resulting in a concentration of 25 μg LL-37/cm^2.
LL-37 was also mixed with various excipients before being applied onto the 2×2 cm PU foams. LL-37 dissolved in PBS was added to dry galactolipid and the resulting dispersion was vigorously shaken for 1 h. The galactolipid concentration was 0.2% (w/w). LL-37 dissolved in water was added to a preformed gel consisting of 25% poloxamer (Lutrol F127) in water. The resulting mixtures of about 1 g were heated at about 60° C. for about 10 min to evaporate the alcohol. The formulations were then applied with a spatula on 2×2 cm pieces of PU. In case the formulation contained water, PU foams were dried at RT for at least 24 h.
To release LL-37 from coated PU foam, 1×1 cm samples were cut and weighed in order to calculate the amount of LL-37 present in each sample. Each PU foam sample was placed into a 15 ml glass vial containing 3 ml PBS and incubated at RT for the indicated time period with constant shaking of 6 rpm. At various time intervals (10, 20, 45, 120 min, and 24 h), 100 μl release sample was removed for analysis and replaced with 100 μl fresh PBS. Release samples were stored at 4° C. until analysis, usually for 24 h.
The release was calculated as the total amount of LL-37 in the release liquid divided by the amount of loaded LL-37 in the sample.
LL-37 was detected and quantified using an enzyme-linked immunosorbent assay (ELISA) based on the protocol developed by Lindgreen and colleagues (Lindgreen 2004). Medium binding capacity 96-well plates (Greiner Bio-one, Frickenhausen Germany) were coated with […] rabbit IgG anti-LL-37 antibodies (Agrisera, Vännäs, Sweden) in 200 μl coating buffer (0.1M bicarbonate buffer, pH 9.0) for 18 to 24 h at 2-8° C. […] Reaction was stopped by addition of 50 μl 1 M sulfuric acid and absorbance immediately read at 450 nm (OD450 nm) using a VERSAmax microplate reader equipped with SoftMax Pro software for analysis (Molecular Devices).

LLGDFFRKSKEKIGKEFKRIVQRIKDFLRNLVPRTES [LL-37]
% LL-37 released in solution (maximum) (PU foam with 25 μg LL-37, peptide formulated in PBS or in ethanol, 3 ml PBS, shaking, after 24 h incubation): 30% | % LL-37 released in solution (LL-37 formulated in galactolipid (ethanol or PBS solutions)): No detectable | % LL-37 released in solution (LL-37 formulated in poloxamer (Lutrol)): 1% | LL-37 concentration in release sample as determined by ELISA (release sample from PU foam where LL-37 in PBS has been absorbed, used in second chemotaxis experiment): 4,500 ng/ml

From US20130108682A1, “WOUND CARE PRODUCT COMPRISING A CATHELICIDIN POLYPEPTIDE” (LIPOPEPTIDE AB, priority 2007, published 2013)
